Test [1] addresses T1, His-tagged human Dpy-30 domain only (Dpy-30 45-99) (human, UniProt Q9C005 45-99).
T1 construct: range 45-99; also called the Dpy-30 domain; Dpy-30 domain alone; not shown: His tag and vector-encoded residues of pET-28a
Description: Ni-NTA pulldown of co-expressed proteins, GST western blot.

The target in test [2] is T2, His-tagged human Dpy-30 protein (full length) (human, UniProt Q9C005 1-99).
T2 construct: range 1-99; also called His-Dpy-30; HDpy-30; not shown: His tag and vector-encoded residues of pET-28a
The description is as above.

T2 sequence (Q9C005 whole entry): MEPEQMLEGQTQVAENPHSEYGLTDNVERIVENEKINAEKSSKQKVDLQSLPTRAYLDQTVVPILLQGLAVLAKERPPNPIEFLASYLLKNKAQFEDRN
T1 sequence (Q9C005 45-99): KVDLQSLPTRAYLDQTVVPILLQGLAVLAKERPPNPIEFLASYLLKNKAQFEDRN

B1: GST-tagged RSP3 280-316 with V300P mutation (other)
chain: PWLKEQAIGYLARGVVARRVPDKLVEDAAAALAANRS
notes: also called pRSP3V300P product; not shown: N-terminal GST tag (from pGEX-2T) and its junction
As for B1, the binding result in test [1] and in test [2] was “no binding” in each case.
